20 sequences from the DeepSol protein solubility set can be followed below.

The nature of this data set: soluble on expression in E. coli; label from the status in PepcDB or PDB records.
Turning to “MLSVEKFRVGERVVWIGVIFSGRVQGIAFAFDRGTLMKRIHDLAEHLGKRGVSISLDVQPSDYPEKVFKVLIGELDNASFLRELSFEGVTPFEKKVYEWLTKNVKRGSVITYGDLAKALNTSPRAVGGAMKRNPYPIVVPCHRVVAHDGIGYYSSGIEEKKFLLEIEGVKEWTS”, the “soluble on expression in E. coli” value was “soluble”.
Take “MSLAGTFAIAPTPFHDDGKIDDVSIDRLTDFYAEVGCEGVTVLGILGEAPKLDAAEAEAVATRFIKRAKSMQVIVGVSAPGFAAMRRLARLSMDAGAAGVMIAPPPSLRTDEQITTYFRQATEAIGDDVPWVLQDYPLTLSVVMTPKVIRQIVMDSASCVMLKHEDWPGLEKITTLRGFQKDGSLRPLSILCGNGGLFLDFEMERGADGAMTGYCFPDMLVDVVKLSKAGQRDLAHNLFDAHLPLIRYEHQQGVGLSVRKYVLKKRGLLSSSAQRKPGASLTDTAREEVDYLLSRLARVEGHHHHHH”: the “soluble on expression in E. coli” value is “not soluble”.
For “GHMASVTRAVFGELPSGGGTVEKFQLQSDLLRVDIISWGCTITALEVKDRQGRASDVVLGFAELEGYLQKQPYFGAVIGRVANRIAKGTFKVDGKEYHLAINKEPNSLHGGVRGFDKVLWTPRVLSNGVQFSRISPDGEEGYPGELKVWVTYTLDGGELIVNYRAQASQATPVNLTNHSYFNLAGQASPNINDHEVTIEADTYLPVDETLIPTGEVAPVQGTAFDLRKPVELGKHLQDFHLNGFDHNFCLKGSKEKHFCARVHHAASGRVLEVYTTQPGVQFYTGNFLDGTLKGKNGAVYPKHSGFCLETQNWPDAVNQPRFPPVLLRPGEEYDHTTWFKFSVA”, the “soluble on expression in E. coli” value is recorded as “soluble”.
Then “MLTIPEKENRGSKEQEVAIMIDALADKGKKALEALSKKSQEEIDHIVHQMSLAAVDQHMVLAKLAHEETGRGIYEDKAIKNLYASEYIWNSIKDNKTVGIIGEDKEKGLTYVAEPIGVICGVTPTTNPTSTTIFKAMIAIKTGNPIIFAFHPSAQESSKRAAEVVLEAAMKAGAPKDIIQWIEVPSIEATKQLMNHKGIALVLATGGSGMVKSAYSTGKPALGVGPGNVPSYIEKTAHIKRAVNDIIGSKTFDNGMICASEQVVVIDKEIYKDVTNEFKAHQAYFVKKDELQRLENAIMNEQKTGIKPDIVGKSAVEIAELAGIPVPENTKLIIAEISGVGSDYPLSREKLSPVLALVKAQSTKQAFQICEDTLHFGGLGHTAVIHTEDETLQKDFGLRMKACRVLVNTPSAVGGIGDMYNELIPSLTLGCGSYGRNSISHNVSATDLLNIKTIAKRRNNTQIFKVPAQIYFEENAIMSLTTMDKIEKVMIVCDPGMVEFGYTKTVENVLRQKTEQPQIKIFSEVEPNPSTNTVYKGLEMMVDFQPDTIIALGGGSAMDAAKAMWMFFEHPETSFFGAKQKFLDIGKRTYKIGMPENATFICIPTTSGTGSEVTPFAVITDSETNVKYPLADFALTPDVAIIDPQFVMSVPKSVTADTGMDVLTHAMESYVSVMASDYTRGLSLQAIKLTFEYLKSSVEKGDKVSREKMHNASTLAGMAFANAFLGIAHSIAHKIGGEYGIPHGRANAILLPHIIRYNAKDPQKHALFPKYEFFRADTDYADIAKFLGLKGNTTEALVESLAKAVYELGQSVGIEMNLKSQGVSEEELNESIDRMAELAFEDQCTTANPKEALISEIKDIIQTSYDYKQ”, with “not soluble”; and “MGSDKIHHHHHHMIETKFKQTELCRIPEDWDIGTFADFLITFSAGATPYRGIPDNFVGTIPWISSGELNYCEIENTREHISSDAQKNTHLTLHKPGTFLIAITGLEAAGTRGRCAFVKTPATTNQSCLAINSTDKMTVKYLFWFYRQWSDFLAFNFSQGSKQQSFTAEIVKRLPLYAPKYKEQEKIAEALSDVDKLIRELDTLIEKKRAVMQGTMQELLTAHRRLPGFVHPWRNTLVEKCCKITTGESNTRDQIESGIYPFYIRSATVMRSNSYIFDCEGVITIGDGQIGKVFHYVNGKFDLHQRCYLMYDFDDIDVKFFYFLFSFFFYNRVIALSAKATVDSVRRNMIAKMKINIPSTMQEQKAIANILSDMNDGIEAIEAKRDKYIAVRQGMMQQLLTGKIRLI”, with “not soluble”; and “MSLVTLKDIAAEAGVSIMTVSNVINGNHSKVSKNTIEKIEKIIQKYNYVPNLTARSLTAKSSKIIGIIVPIKGSFNNLFKDPYISELFGIIQNVVRENGYYLMVRSVKDVSDISALLKNWNMDGAIFLMPDYDNLIYSILKENKLPMVFLDSYSKIDNIISVGINDYKGGYIATRYLINNGHRKILFAGPCHKDGIPIPQIIKRLEGYKDALLESNIEFNESLIVDVEPNYEVGINLGRSICNKEFDVTAVFTTADIMGIGIIEGAKLNGKIVPNDLSVIGFDNLLPSVYVTPKLTTISQDIESKATKAVDLLIEYIEKGSVSNNKITLDVELVERQSVGQLSNEGHHHHHH”, with “soluble”.
With “SSFQGPLDATVVVNLQSPTLEEKNEFPEDLRTELMQTLGSYGTIVLVRINQGQMLVTFADSHSALSVLDVDGMKVKGRAVKI”, the “soluble on expression in E. coli” value was “soluble”.
As for “MTVSDHPQTVSQPDPESESRPSKTRLKQEMHALQALGERLVELEPARIAELDLPEKLAEALLEARKITSHGARRRHLQFIGKLMRAVDPLPVQEKLDAWQHTGMRHTAWLHQLERWRDRLISDETAVTEFVQTYPHTDVRQLRTLLRNIEKEKLAGKPPHNFRALFQLLRQIIPEIPG”, the “soluble on expression in E. coli” value is on record as “not soluble”.
With “MSLITVANRIFVNPERAAAFEERFRRRPRRVDRQPGFIADHVLRPTQAGDPYVVLSFWDSRAAFEAWRTSPGFKDGHKEGHHHHHH” the entry was “not soluble”.
As to “MASANSVIEGDLFKQKGASTFFNEGDINSSEGTIKHIYGLIIGTSNVSSSGTFATVNLTAGNKTGMTEFSLSNVLISDINSKSVPYTVTNATVLIDTAPVIDPICCPKSVDEKSKLAFKISAKDADGDRLTLSASGLPEGASFNRTSGAFAWTPAVGQTGVYTIAFKVSDGYLTDSENVTVTVNKLNNPPVIDFFEPINGSSFSEGERIGISVNATDAEKQALNYSIKIDGVMYSSDPAYIWETDYSSSGNHTIEVSVSDGIDEAKMQHSIYISECHPRYDVNEDGVVNILDITNVSREYETTVSKPYPRYDTNQDGEINILDLTLVGHHFGEKVELEHHHHHH”, the “soluble on expression in E. coli” value is on record as “not soluble”.
With “MKKYSFPVTYENVRFPPNGQLKLPVMPAEPFYDAEKGEKKYKSTKRMIEARGVEEVHTELIHEQYGLAAVSGGFIDSDDFKFIQDRINKNLIDNQFSVWRVDAPWLPRTKKAQGTRLGGGKGSIQKYVTPVRANRIILEVGGHITEIEAKAFLLYLCERFSFPVEFVSETMLAERRKKAEEERAMNKNGFNWGKVIKYNMQNCNSWLSSYDVAWKGKYR”, the “soluble on expression in E. coli” value was “not soluble”.
Consider “MSSFDKNDERAQLMVPKSINEGKVVKLSQKTLVTKKIERQVVPEEKYIAGLDKIIEKDYFPHLKKMQAQKEYLEAVANKDINKIKELQMKFCSTGSVRTDRSFRTPITTRSTTEAPDVSSFDADTPGPSSASTSSAHDWMQSPMPFANEEGDNEALNRKRKKKKEETLTSYLNKYTSEDNASFEELAKVMREREDARRPWVYKAEEEHNKNLVTRQAIAAEADVQLALKHAVDADDNRPLNVDNWAYKAWNTVLFNPDGAALTPAEIADAARKQQTEINKRGTRFPDSGKLKPSDEAMTRAAVSHALANAGKVDFLGNEVTPANSFKLLETPNPNPDDMDSPLMTWGEIDGTPFRLDAPDVTEHSLPGAAPVFKIPEVPYREKIAQSMNDSIAAKYRDKRKVAMRAAEGAHRTPGFGSKRVSDKLAQLSPAAQKLATKKLGLKMLPAHKSPFASPKIMSNWSRPSSSKRSTTPGSAWSRGSTTPGSSWSQGAQTPGTPGIESMIRRKGDNVGPSTSAGAADRANAGDFF”, for which the “soluble on expression in E. coli” value was “not soluble”.
Regarding “AATQTWTGDLAIVTIPFSSLRFVKVTPPFSYKKRRAVIETHYDQATKVLLEFSRRWWEFTEADWKRELDAIAPGLYDYYQQWGEDDAEAALALPQSVRNLPTGLLGAHPSVDESRIGEEQVEYYRNSELR”, the “soluble on expression in E. coli” value is recorded as “soluble”.
In the case of “PKHGKRYRALLEKVDPNKIYTIDEAAHLVKELATAKFDETVEVHAKLGIDPRRSDQNVRGTVSLPHGLGKQVRVLAIAKGEKIKEAEEAGADYVGGEEIIQKILDGWMDFDAVVATPDVMGAVGSKLGRILGPRGLLPNPKAGTVGFNIGEIIREIKAGRIEFRNDKTGAIHAPVGKASFPPEKLADNIRAFIRALEAHKPEGAKGTFLRSVYVTTTMGPSVRINPHS”, the “soluble on expression in E. coli” value was “soluble”.
In the case of “MDKNRVFGQRLRQSIQNYFSSPWLLYTAKAEALLDLRDDEAMLNEMEAVGELPMALEYESLTDVQTQIVTAIQAELAHFRNTAQPINLGAVLQEQLARYPQSRHFDVARIIVDQAVKLGMASQDHQAVYPVWQPIDDFSAAVQAHLIDQYDK”, the “soluble on expression in E. coli” value is reported as “soluble”.
With “MGHHHHHHSHSGGRNKIRKILDKTRFSILPPKLFSDGGLSQSQDDSIVGTRHCRHSLAIMPIPGTLSSSSPDLLQPTTSMLDFSNPSDIPDQVIRVFKVDQQSCYIIISKDTTAKEVVFHAVHEFGLTGASDTYSLCEVSVTPEGVIKQRRLPDQFSKLADRIQLNGRYYLKNNMETETLC” the entry was “not soluble”; with “MAATVVIVAWIANRPPASSHEPSPTPNTQLAEQPLIGLGGGVTVRELTQDTPFSLVALTGDLAGTSARVRAKRPDGDWGPWYQTEYETEPRDPAGTDGSVELGGLNPGPRSTDPVFVGTTTTVQVAVTRPIDAPITQPPAGRPPNDLLDSGLGYRPATKEQPFGQNISAILISPPQAPPGTQWTPPTAVTMAGQPPAIISRAEWGADESLRCETPEYDRGVRAAVVHHTAGSNDYSPLESAGIVKAIYTYHSKTLGWCDIAYNALVDKYGQVFEGSAGGLTKPVEGFHTGGFNRNTWGVAMIGNFDDVAPTPIQIRTVGRLLGWRLGMDDVDPRSMVDLQSAGSSYTTFPGGAIARLPAIFTHRDVGNTDCPGNAAYAVMDEIRDIAAHFNDPPEELIKALEGGAIYQRWQALGGMNSALGAPTSPEADAADGARYATFAKGAMYWSPVTDAQPITGAIYEAWASQSYERGPLGLPTSAEIQEPLQITQNFQHGTLNFERLTGNVTEVVDGITTPLATRPPSGPTVPPEHFTLPTHPIT”, “soluble”; with “MGSDKIHHHHHHMKLAKKYYAVRKGRVPGIYKTWKEAEEQVKGFPGAEYKSFERLEDAKAYMEGKNECICPELDTETMIAYVDGSYDEVCGSGIVLCYRGKKEEYYFWTNIEEFKDSRNITGEIMAALFAMDYALKKGARKLVLRYDLEGLEKWATEEYRTNKLVTKVYRHYYRKFCQMGLKVVFEKIKSHSGNFCNDEADSLAKKASKKESNVEWMPEDFESIIRTLTKKGGCL”, “not soluble”.
For the sequence “MGSDKIHHHHHHVRVDLRHISDEKKLSYSDVLWQYVKQDFLWRINNAGLGNVLWLQKPYFATGEKLAFYYVYGSPGGRAEDNGTPFDVLRNIIIGNAGLNSHSDVVWTNAELSKQAAKVSANEPDASDMQPLIHTWNLSAMCDGGEVPFAVRLERLNEADAGVPMTKNIVFMNSFYGDADVCIFSPESRLGEQLFEIMDKLELVSDMKPYGDAYEILKRYSVSGRQIIDIFKVRAKNKPKTVSMHRLEQVYGYRSYAYMRRRWERYCKRLTRQQMAYANAGWEETLDLILDFLTPVWSAFCNDEIFYDDWMPELGRFLG”, the “soluble on expression in E. coli” value is given as “not soluble”.
With “MVDTHKLADDVLQLLDNRIEDNYRVCVILVGSPGSGKSTIAEELCQIINEKYHTFLSEHPNVIEVNDRLKPMVNLVDSLKTLQPNKVAEMIENQGLFKDHVEDVNFQPVKYSALTSNNEECTAVVARGGTANAIRIAAVDNPVNVNKLAQDSINIAQIVPMDGFHLSRRCLDLFKDPQTAHKRRGSPSTFDSNNFLQLCKILAKTSLCKVSSHHKFYSTSSVFEKLSKTFSQTIPDIFVPGFNHALKDPTPDQYCISKFTRIVILEGLYLLYDQENWKKIYKTLADTGALLVYKIDIDYEATEERVAKRHLQSGLVTTIAEGREKFRSNDLLNGRDIDNHLIKVDNIVHIRNDHHHHHH” the entry was “soluble”.
